Results from article PMC12524980.

Biological target: PpiC of E. faecium (mature PpiC, residues 25–336) (E. faecium)
Assay: SEC-MALS; SEC coupled to light scattering (SEC-LS); 500 micrograms loaded on Superdex 200 increase 10/300 GL (PpiC) or Superdex 75 increase 10/300 GL (PpiC^ΔC); 50 mM Tris-HCl, 150 mM NaCl, 5% glycerol, pH 7.8; 0.5 mL/min

Substance “PpiC of E. faecium (mature PpiC, residues 25–336) (enzyme)” has a stoichiometry N of 2.
